Results published in patent US20250276073A1 (Bicycle, published 2025).
Starred links: 1 amine or outer side, 2 acyl side, 3 side chain; linkers in the order of their positions; H or OH if unused. Positions of bridges follow the written chain, without caps; N, C: chain ends. Non-standard residues stand in square brackets, D forms with d. TATB = O=C(C[*:1])N1CN(C(=O)C[*:2])CN(C(=O)C[*:3])C1; Phe(4-CONH2) = NC(=O)c1ccc(C[C@H](N)C(=O)O)cc1; Phe(4-COOH) = N[C@@H](Cc1ccc(C(=O)O)cc1)C(=O)O; Val(3-OH) = CC(C)(O)[C@H](N)C(=O)O; Hyp = O=C(O)[C@@H]1C[C@@H](O)CN1; Tle = CC(C)(C)[C@H](N)C(=O)O

B1: BCY23515 (peptide)
peptide: Ac-CP[Hyp]DAYLGC[Val(3-OH)]SYCEPW-NH2
modifications: linker 1-9-13 via TATB
SMILES: CC(=O)N[C@H]1CSCC(=O)N2CN3CN(C2)C(=O)CSC[C@@H](C(=O)N[C@@H](CCC(=O)O)C(=O)N2CCC[C@H]2C(=O)N[C@@H](Cc2c[nH]c4ccccc24)C(N)=O)NC(=O)[C@H](Cc2ccc(O)cc2)NC(=O)[C@H](CO)NC(=O)[C@H](C(C)(C)O)NC(=O)[C@H](CSCC3=O)NC(=O)CNC(=O)[C@H](CC(C)C)NC(=O)[C@H](Cc2ccc(O)cc2)NC(=O)[C@H](C)NC(=O)[C@H](CC(=O)O)NC(=O)[C@@H]2C[C@@H](O)CN2C(=O)[C@@H]2CCCN2C1=O
notes: Bicyclic peptide
B2: BCY23188 (peptide)
peptide: CPXDAXLGCXSYCEPW
modifications: CP[HyP]DA[hTyr]LGC[tBuGly]SYCEPW: HyP at 3, hTyr at 6, tBuGly at 10; N-terminal acetyl; C-terminal CONH2; Cys 1, 9, 13 bonded to TATB scaffold
notes: Bicyclic peptide
B3: BCY23186 (peptide)
peptide: Ac-CP[Hyp]DA[Phe(4-CONH2)]LGC[Tle]SYCEPW-NH2
modifications: linker 1-9-13 via TATB
SMILES: CC(=O)N[C@H]1CSCC(=O)N2CN3CN(C2)C(=O)CSC[C@@H](C(=O)N[C@@H](CCC(=O)O)C(=O)N2CCC[C@H]2C(=O)N[C@@H](Cc2c[nH]c4ccccc24)C(N)=O)NC(=O)[C@H](Cc2ccc(O)cc2)NC(=O)[C@H](CO)NC(=O)[C@H](C(C)(C)C)NC(=O)[C@H](CSCC3=O)NC(=O)CNC(=O)[C@H](CC(C)C)NC(=O)[C@H](Cc2ccc(C(N)=O)cc2)NC(=O)[C@H](C)NC(=O)[C@H](CC(=O)O)NC(=O)[C@@H]2C[C@@H](O)CN2C(=O)[C@@H]2CCCN2C1=O
notes: Bicyclic peptide
B4: BCY23185 (peptide)
peptide: CPXDAXLGCXSYCEPW
modifications: CP[HyP]DA[DOPA]LGC[tBuGly]SYCEPW: HyP at 3, DOPA at 6, tBuGly at 10; N-terminal acetyl; C-terminal CONH2; Cys 1, 9, 13 bonded to TATB scaffold
notes: Bicyclic peptide
B5: BCY23200 (peptide)
peptide: CPXDAYLGCXSXCEPW
modifications: CP[HyP]DAYLGC[tBuGly]S[DOPA]CEPW: HyP at 3, tBuGly at 10, DOPA at 12; N-terminal acetyl; C-terminal CONH2; Cys 1, 9, 13 bonded to TATB scaffold
notes: Bicyclic peptide
B6: BCY23201 (peptide)
peptide: CPXDAYLGCXSXCEPW
modifications: CP[HyP]DAYLGC[tBuGly]S[pCaPhe]CEPW: HyP at 3, tBuGly at 10, pCaPhe at 12; N-terminal acetyl; C-terminal CONH2; Cys 1, 9, 13 bonded to TATB scaffold
notes: Bicyclic peptide
B7: BCY23187 (peptide)
peptide: Ac-CP[Hyp]DA[Phe(4-COOH)]LGC[Tle]SYCEPW-NH2
modifications: linker 1-9-13 via TATB
SMILES: CC(=O)N[C@H]1CSCC(=O)N2CN3CN(C2)C(=O)CSC[C@@H](C(=O)N[C@@H](CCC(=O)O)C(=O)N2CCC[C@H]2C(=O)N[C@@H](Cc2c[nH]c4ccccc24)C(N)=O)NC(=O)[C@H](Cc2ccc(O)cc2)NC(=O)[C@H](CO)NC(=O)[C@H](C(C)(C)C)NC(=O)[C@H](CSCC3=O)NC(=O)CNC(=O)[C@H](CC(C)C)NC(=O)[C@H](Cc2ccc(C(=O)O)cc2)NC(=O)[C@H](C)NC(=O)[C@H](CC(=O)O)NC(=O)[C@@H]2C[C@@H](O)CN2C(=O)[C@@H]2CCCN2C1=O
notes: Bicyclic peptide

Target: T1, Recombinant human His-tagged TfR1 (a.a. 89-760) (ACRO Biosystems, CD1-H5243) (human, UniProt P02786 89-760)
T1 construct: range 89-760; Bought protein; Captured and amine-coupled on an NTA chip; also called human TfR1; transferrin receptor 1; not shown: His tag (printed 'Hiss-tagged')
Assay: SPR (Biacore), TfR1 captured/coupled on NTA chip, peptide as analyte

T1 sequence (P02786 89-760 limits assumed): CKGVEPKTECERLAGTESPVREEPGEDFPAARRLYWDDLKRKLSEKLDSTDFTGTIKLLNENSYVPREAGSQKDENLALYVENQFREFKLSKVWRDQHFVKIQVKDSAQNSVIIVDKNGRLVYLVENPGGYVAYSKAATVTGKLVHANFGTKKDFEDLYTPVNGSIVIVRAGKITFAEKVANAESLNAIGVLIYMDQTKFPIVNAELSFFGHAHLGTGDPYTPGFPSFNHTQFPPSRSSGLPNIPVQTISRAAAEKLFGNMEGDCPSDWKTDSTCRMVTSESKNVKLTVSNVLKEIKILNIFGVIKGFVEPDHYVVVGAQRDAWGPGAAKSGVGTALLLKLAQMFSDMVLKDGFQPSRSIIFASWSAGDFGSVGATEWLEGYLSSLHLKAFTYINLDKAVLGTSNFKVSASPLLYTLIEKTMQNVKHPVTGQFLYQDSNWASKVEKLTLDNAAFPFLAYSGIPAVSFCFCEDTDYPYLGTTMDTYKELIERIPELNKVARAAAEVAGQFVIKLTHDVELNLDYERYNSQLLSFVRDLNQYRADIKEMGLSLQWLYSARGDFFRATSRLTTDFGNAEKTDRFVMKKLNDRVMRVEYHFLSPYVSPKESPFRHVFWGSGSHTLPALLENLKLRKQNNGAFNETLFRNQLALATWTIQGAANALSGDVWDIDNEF

Point of comparison: B2, Kd 109 nM. Against it:
- B1 — within 1.5-fold, 85 nM
- B3 — 4-fold lower, 27 nM
- B4 — 9.1-fold lower, 12 nM
- B5 — 11-fold lower, 9.5 nM
- B6 — 6.4-fold lower, 17 nM
- B7 — 2.9-fold lower, 38 nM
